Test results as given in patent US9677053B2, “Laccases for bio-bleaching” (BASF ENZYMES LLC, priority 2006, dated 2017).
Values belong to the molecule of their own block, whether it stands above or below them.

How the values were obtained:
[1] = mediator ability to delignify pulp
[2] = delignification of wood pulp with laccase and mediator, handsheet brightness; conditions: with Mediator 71 (50 mg per 1 gram softwood pulp), borate buffer pH 8, 22° C., then NaOH/H2O2 extraction at 75° C.
Experimental: Laccases BD22449 and BD22865, identified and characterized in Examples 1-5 above were assayed for wood pulp delignification with Mediator 71. Briefly, 1 gram of softwood pulp was treated with 3 mL of BD22449 or BD22865 culture supernatant isolated as described in Example 2 with 50 mg of Mediator 71 at 5% consistency in borate buffer pH 8 at 22° C. Laccase/mediator treatment was followed by extraction stage with 2.5% NaOH, 2% H2O2 at 75° C. Handsheets were made out of the treated pulp and brightness increase due to the laccase/mediator treatment was measured using Brightmeter Micro S-5 (Technidyne Corp. New Albany, Ind., USA). Brightness increase obtained with BD22449 and BD22865 with Mediator 71 was −30% (data not shown).

[3] = oxidation of Mediator 71 at pH 8, oxygen electrode; format: biochemical; conditions: for specific activity, oxidation of Mediator 71: 1 mM Mediator 71, pH 8, room temperature, laccase preparation, not purified protein
Experimental: BD22449 (SEQ ID NO:2), BD22865 (SEQ ID NO:4) and Trametes versicolor laccase (used as a control) were assayed for their ability to oxidize Mediator 71 at pH 8 using oxygen electrode. Briefly, 50 μL of BD22449 or BD22865 culture supernatant isolated as described in Example 2 was incubated with 950 μL Mediator 71 dissolved in Britton-Robinson Buffer to a final concentration of 1 mM at pH 8. The consumption of oxygen was measured at room temperature in an OXYTHERM™ oxygen measurement instrument over time as described above.

[4] = thermotolerance, residual activity on ABTS; format: biochemical; conditions: 1 hour
Experimental: Laccases BD22449 and BD22865, identified and characterized in Examples 1-5 above were assayed for thermotolerance. Briefly, each laccases was tested at 50° C., 60° C. and 70° C. for 0-60 minutes wherein the residual activity on ABTS was measured. Supernatants from the Aspergillus cultures expressing BD22449 (SEQ ID NO:2) and BD22865 (SEQ ID NO:4) were isolated as described in Example 2. Supernatants were incubated at 50° C., 60° C. or 70° C. for 1 min, 5 min, 10 min, 30 min, and 60 min. For each time point, the oxidation of 2, 2′-azino-bis(3-ethylbenzthiazoline-6-sulfonic acid) (ABTS) by the laccase was measured using an OXYTHERM™ oxygen measurement instrument.

[5] = HBT oxidation, oxygen consumption; format: biochemical; conditions: 1 mM HBT, pH 8, 22° C.
Experimental: (§1) The ability of BD22865 (SEQ ID NO: 4) to oxidize mediators with higher redox potentials such as violuric acid and 1-hydroxybenzotriazole (HBT) at pH 8 at room temperature was also tested. Briefly, 50 μL of BD22865 culture supernatant isolated as described in Example 2 was incubated with 950 μL violuric acid (1 mM in Britton-Robinson Buffer at pH 8) or HBT (1 mM in Britton-Robinson Buffer) at pH 8 at 22° C. in an OXYTHERM™ oxygen measurement instrument. Oxygen consumption was measured as described above. SEQ ID NO:4 (BD22865) was able to oxidize both violuric acid and HBT with oxygen consumption rates of 150 nmol/min/mg and 100 nmol/min/mg, respectively under the conditions described herein.

[6] = violuric acid oxidation, oxygen consumption; format: biochemical; conditions: 1 mM violuric acid, pH 8, 22° C.
Experimental: as §1

[7] = pHopt for oxidation of Mediator 71; format: biochemical; conditions: 1 mM Mediator 71, pH 5-10, room temperature, 20 min
Experimental: Next, the pHopt for the catalysis of the oxidation of Mediator 71 was determined for each laccase. […] of BD22449 or BD22865 culture supernatant isolated as described in Example 2 was incubated with […] Mediator 71 dissolved in Britton-Robinson Buffer to a final concentration of 1 mM at pH 5, 6, 7, 8, 9, or 10. The consumption of oxygen over 20 min at room temperature was determined in an OXYTHERM™ oxygen measurement instrument over time as described above. […] By contrast, the Trametes laccase had no activity on Mediator 71 at pH 7 or above.

[8] = TEMPO oxidation, oxygen consumption (OXYTHERM); format: biochemical; conditions: 1 mM TEMPO, pH 8, 22° C., culture supernatant
Experimental: Briefly, 50 μL of test culture supernatants isolated as described in Example 2 was incubated with 950 uL TEMPO (1 mM in Britton-Robinson Buffer at pH 8) at 22° C. in an OXYTHERM™ oxygen measurement instrument (Hansatech, England). Oxygen consumption was measured over time according to the manufacturer's instructions.

Molecule: CNC(=O)N(O)c1cccc(C(F)(F)F)c1 [Mediator 71, 3-(3′-Trifluoromethylphenyl)-3-hydroxy-1-methylurea]
ability to delignify pulp [1]: capable of delignifying pulp
efficiency among mediators ([1]; pH 5 and pH 8): most efficient

brightness increase of handsheets [2]: −30%
B1: BD22865: laccase from Fusarium verticillioides, SEQ ID NO: 4, expressed in Aspergillus niger, tested as culture supernatant (protein)
chain: MALIERVWHACVSIVAWLTMWPTSPSTSYQHPLRPNHPHTHIEDPSPGFPIFHPPPGDHEFLCEYPEMTGFVQCSIPENRECWLRHPDGREFNIHTNYENFAPKGIMRHYTLNITESWYNADGQNFTEAKLFNGEYPGPWLEACWGDTFNITVINSMKRNGTSIHWHGIRQNQTMDMDGVNGITQCPIAPGDSFSYIFNTTQYGTSWYHSHYSVQYADGLQGPITIHGPQSAPYDATKRPLLMTDWSHESAFRLLFPGSQFSNKTILLNGAGNVSHYGYTPTLPIPDNYELYFNKTPTDKPTRPKRYLLRLINTSFDSTLVFSIDNHWLQIVTSDFVPIEPYFNTSVLIGIGQRYNVIVEANPLGGDVNEIPDDGNFWIRTWVADACGIAPGGEGYEKTGILRYNHSDKALPSSQPWVNISKACSDETYTSLRPKIPWYIGPAANAQNGERFNVTFDPNAKNTPEFQEEYPVATFGLQRPGQNFRPLQINYSDPVMFHLDEPRDTYPPKWVVIPEDYTEKEWVYFVLTIEGISARTGAHPIHLHGHDFALLQQEENQTYDPSRLNLKLDNPPRRDVVLLPRNGFVVIAFKADNPGIWLMHCHIARHASEGLAMQVLERQGDSNKLFPVGSPNMIEAERVCKVWETWMDGEKDFFEGDSGI
modifications: Fusarium verticillioides
specific activity, oxidation of Mediator 71 [3]: 1350 nmol/min/mg
specific activity on Mediator 71 compared to BD22449 ([3]; pH 8): about twice the specific activity
activity remaining after an hour at 60° C. [4]: about 40%
HBT oxidation, oxygen consumption rate [5]: 100 nmol/min/mg
violuric acid oxidation, oxygen consumption rate [6]: 150 nmol/min/mg
pH of optimum oxidation of Mediator 71 [7]: 8
TEMPO oxidation, oxygen consumption rate [8]: 250 nmol/min/mg

brightness increase of handsheets [2]: −30%
B2: BD22449: laccase from Cochiobolus heterostrophus, SEQ ID NO: 2, expressed in Aspergillus niger, tested as culture supernatant (protein, listed as Cochliobolus heterostrophus)
chain: MVSSISRVVTALGLLLPTVTSSVVPHKSLAPRTPEVPWKNTGLFSGHSKRQGYETACNHGPESRGCWIDDFNIDTDMDVEWPDTGKTVKYHLTITNTTGAPDGFERPMFLINGQYPGPTITADWGDVLEITVTNGLENNGTGIHWHGLRQLGTNEQDGVNGITECPIAPGDSKLYRFKATQYGTTWYHSHYSVQYGDGIVGPLIIKGPSTANYDIDLGAFPMTDWFHATTFTVNAAAVHANGPPTADNVLVNGSMTSSFGGKYAETILTPGKSHLLRLMNVGINNYLHVGLDGHQFQVISADFTPIEPFYTDSLVLAVGQRYEVIINATEAVGNYWLRVGTGGNCDGPNANAANIRSIFRYAGAPTEDPDTTGSLPSGCYDEDVVPYAKTTVPQEMPEQLSVGFNPNWTSDVTQNQGLVQWLVNGNPMAVDLEVPTLQSVLDGNVTYGNNRHVFAVDEKHQWQYWVIQQNSSNPPLPHPIHLHGHDFYVLAQVENAVWNGDISTLKTDNPIRRDTADLPAGGYLVLAFESDNPGAWLMHCHIPFHVAAGLGVQFLERESEIKAQDGYAEMHRTCANWQSWRYKYHPNGILFPGDSGLRRRN
specific activity, oxidation of Mediator 71 [3]: 677 nmol/min/mg
activity remaining after an hour at 60° C. [4]: approximately 100%
pH of optimum oxidation of Mediator 71 [7]: 8
TEMPO oxidation, oxygen consumption rate [8]: did not show TEMPO oxidation
